Test results published in patent US20160017037A1 (GlaxoSmithKline, published 2016).

B1: H1L7 (antibody, human IgG1, kappa, V domains shown)
VH: QVQLQESGPGLVKPSETLSLTCTVSGFSLTAYGVNWIRQPPGKGLEWIGMIWDDGSTDYNSALKSRVTISVDTSKNQFSLKLSSVTAADTAVYYCAREGDVAFDYWGQGTLVTVSS
VL: DIQMTQSPSSLSASVGDRVTITCKSSQSLLNPSNQKNYLAWYQQKPGKAPKLLVYFASTRDSGVPSRFSGSGSGTDFTLTISSLQPEDFATYYCLQHFGTPPTFGQGTKLEIKR
notes: Humanised anti-LAG-3 variant, HEK 293 6E expressed
B2: H0L7 (antibody, human IgG1, kappa, V domains shown)
VH: QVQLQESGPGLVKPSETLSLTCTVSGGSISAYGVNWIRQPPGKGLEWIGMIWDDGSTDYNSALKSRVTISVDTSKNQFSLKLSSVTAADTAVYYCAREGDVAFDYWGQGTLVTVSS
VL: DIQMTQSPSSLSASVGDRVTITCKSSQSLLNPSNQKNYLAWYQQKPGKAPKLLVYFASTRDSGVPSRFSGSGSGTDFTLTISSLQPEDFATYYCLQHFGTPPTFGQGTKLEIKR
notes: as for B1
B3: H2L7 (antibody, human IgG1, kappa, V domains shown)
VH: QVQLQESGPGLVKPSETLSLTCTVSGFSLTAYGVNWIRQPPGKGLEWIGMIWDDGSTDYNSALKSRVTISKDNSKNQVSLKLSSVTAADTAVYYCAREGDVAFDYWGQGTLVTVSS
VL: DIQMTQSPSSLSASVGDRVTITCKSSQSLLNPSNQKNYLAWYQQKPGKAPKLLVYFASTRDSGVPSRFSGSGSGTDFTLTISSLQPEDFATYYCLQHFGTPPTFGQGTKLEIKR
notes: as for B1
B4: H4L7 (antibody, human IgG1, kappa, V domains shown)
VH: QVQLQESGPGLVKPSETLSLTCTVSGFSLTAYGVNWIRQPPGKGLEWLGMIWDDGSTDYNSALKSRLTISKDNSKNQVSLKLSSVTAADTAVYYCAREGDVAFDYWGQGTLVTVSS
VL: DIQMTQSPSSLSASVGDRVTITCKSSQSLLNPSNQKNYLAWYQQKPGKAPKLLVYFASTRDSGVPSRFSGSGSGTDFTLTISSLQPEDFATYYCLQHFGTPPTFGQGTKLEIKR
notes: as for B1
B5: H7L7 (antibody, human IgG1, kappa, V domains shown)
VH: QVQLQESGPGLVKPSETLSLTCTVSGGSISAYGVNWIRQPPGKGLEWIGMIWDDGSTDYDSALKSRVTISVDTSKNQFSLKLSSVTAADTAVYYCAREGDVAFDYWGQGTLVTVSS
VL: DIQMTQSPSSLSASVGDRVTITCKSSQSLLNPSNQKNYLAWYQQKPGKAPKLLVYFASTRDSGVPSRFSGSGSGTDFTLTISSLQPEDFATYYCLQHFGTPPTFGQGTKLEIKR
notes: as for B1
B6: J7L7 (antibody, human IgG1, kappa, V domains shown)
VH: QVQLVQSGAEVKKPGSSVKVSCKASGFSLTAYGVNWVRQAPGQGLEWMGMIWDDGSTDYNSALKSRVTITADKSTSTAYMELSSLRSEDTAVYYCAREGDVAFDYWGQGTLVTVSS
VL: DIQMTQSPSSLSASVGDRVTITCKSSQSLLNPSNQKNYLAWYQQKPGKAPKLLVYFASTRDSGVPSRFSGSGSGTDFTLTISSLQPEDFATYYCLQHFGTPPTFGQGTKLEIKR
notes: as for B1
B7: J0L7 (antibody, human IgG1, kappa, V domains shown)
VH: QVQLVQSGAEVKKPGSSVKVSCKASGGTFSAYGVNWVRQAPGQGLEWMGMIWDDGSTDYNSALKSRVTITADKSTSTAYMELSSLRSEDTAVYYCAREGDVAFDYWGQGTLVTVSS
VL: DIQMTQSPSSLSASVGDRVTITCKSSQSLLNPSNQKNYLAWYQQKPGKAPKLLVYFASTRDSGVPSRFSGSGSGTDFTLTISSLQPEDFATYYCLQHFGTPPTFGQGTKLEIKR
notes: as for B1
B8: J11L7 (antibody, human IgG1, kappa, V domains shown)
VH: QVQLVQSGAEVKKPGSSVKVSCKASGFSLTAYGVNWVRQAPGQGLEWMGMIWDDGSTDYDSALKSRVTITADKSTSTAYMELSSLRSEDTAVYYCAREGDVAFDYWGQGTLVTVSS
VL: DIQMTQSPSSLSASVGDRVTITCKSSQSLLNPSNQKNYLAWYQQKPGKAPKLLVYFASTRDSGVPSRFSGSGSGTDFTLTISSLQPEDFATYYCLQHFGTPPTFGQGTKLEIKR
notes: as for B1
B9: J13L7 (antibody, human IgG1, kappa, V domains shown)
VH: QVQLVQSGAEVKKPGSSVKVSCKASGGTFSAYGVNWVRQAPGQGLEWMGMIWDDGSTDYDSALKSRVTITADKSTSTAYMELSSLRSEDTAVYYCAREGDVAFDYWGQGTLVTVSS
VL: DIQMTQSPSSLSASVGDRVTITCKSSQSLLNPSNQKNYLAWYQQKPGKAPKLLVYFASTRDSGVPSRFSGSGSGTDFTLTISSLQPEDFATYYCLQHFGTPPTFGQGTKLEIKR
notes: as for B1

Each binder was assayed against T1, Fc-tagged recombinant soluble LAG-3 (IMP321) (human, UniProt P18627 23-434) (assay: SPR Biacore 3000, off-rate comparison with IMP731, IMP321 analyte at 64 nM).
T1 construct: also called LAG3-Ig molecule IMP321; recombinant sLAG-3; not shown: Fc / Ig part
T1 sequence (looked up): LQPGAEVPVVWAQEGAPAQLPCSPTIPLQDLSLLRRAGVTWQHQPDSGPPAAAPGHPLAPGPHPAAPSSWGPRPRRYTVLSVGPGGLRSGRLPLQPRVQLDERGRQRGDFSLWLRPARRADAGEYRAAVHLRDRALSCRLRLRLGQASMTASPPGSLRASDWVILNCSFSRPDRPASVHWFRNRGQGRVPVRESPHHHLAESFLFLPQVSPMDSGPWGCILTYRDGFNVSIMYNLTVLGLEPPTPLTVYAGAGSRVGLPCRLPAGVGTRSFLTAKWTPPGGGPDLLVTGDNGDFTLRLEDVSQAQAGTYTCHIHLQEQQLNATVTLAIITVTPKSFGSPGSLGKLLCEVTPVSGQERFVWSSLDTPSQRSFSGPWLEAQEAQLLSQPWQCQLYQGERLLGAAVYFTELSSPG
Description: The binding kinetics of the purified antibodies for a sLAG-3 molecule were assessed by SPR using a Biacore™ 3000. A goat anti-human kappa antibody (Southern Biotech, Catalogue No. 2060-01) was immobilised on a CM5 chip by primary amine coupling. Humanised anti-LAG3 antibodies were captured on this surface and the LAG3-Ig molecule IMP321 (Chrystelle Brignone, Caroline Grygar, Manon Marcu, Knut Schakel, Frederic Triebel, The Journal of Immunology, 2007, 179: 4202-4211) used as the analyte at 64 nM with a buffer injection (i.e. 0 nM) used to double reference the binding curves. Regeneration was with 10 mM Glycine, pH1.5. The run was carried out on the Biacore™ 3000, using HBS-EP as running buffer and at 25° C. Sensorgrams were normalised for binding at maximal association and off-rates compared against IMP731 by visual inspection of the sensorgram profiles.

Going from B1 to B2, the “Rank order of off-rates” value rises from 2 to 10.

Going from B3 to B4, the “Rank order of off-rates” value falls from 6 to 4.

First: B5
Second: B6
The “Rank order of off-rates” value of the first is higher: 8 for the first, 3 for the second.

Compared with B7, B8 is lower in “Rank order of off-rates” value: 9 for the first, 5 for the second.

With B9 the “Rank order of off-rates” value was 7.
